This passage reports protein production results from a protein production outcome set (Wang et al. 2014).

The series is described as follows: label from the status in PepcDB records.
As to “MLKGPLKGCLNMSKKVIVIAGTTGVGKSQLSIQLAQKFNGEVINSDSMQVYKDIPIITNKHPLQEREGIPHHVMNHVDWSEEYYSHRFETECMNAIEDIHRRGKIPIVVGGTHYYLQTLFNKRVDTKSSERKLTRKQLDILESTDPDVIYNTLVKCDPDIATKYHPNDYRRVQRMLEIYYKTGKKPSETFNEQKITLKFDTLFLWLYSKPEPLFQRLDDRVDDMLERGALQEIKQLYEYYSQNKFTPEQCENGVWQVIGFKEFLPWLTGKTDDNTVKLEDCIERMKTRTRQYAKRQVKWIKKMLIPDIKGDIYLLDATDLSQWDTNASQRAIAISNDFISNRPIKQERAPKALEELLSKGETTMKKLDDWTHYTCNVCRNADGKNVVAIGEKYWKIHLGSRRHKSNLKRNTRQADFEKWKINKKETVE”, the protein production result was “failed”.

“MTNKAIKATNEELQQVYNDIPKAYDRANRFISFNQDVKWRADLVKTILKYCKRPKLILDVASGKGELSYTFKKIYKDNSNYEIILSDYAENMLKMALIKDDKVLCSFDALPFREKTFDIVMSSFALHASDNIEDVIREITRVSRKIVGFIAMGKPDSWVRRIYLSIYLKYIMPYIAVLGGAKARDFKYIYYIYERVPTNSQHKRIFEKYIDIKVYEERALNLFYFVVGFPKE”: the protein production result is “failed”.

For the sequence “MAIDSKPHDDLQLFKTNLHPCGYWPDRWASDLVMDPNDPRLGAIYPQTLAWGFRRSGNLLYRPHCEHCNACVPVRVNVNAFVPNRSQRRCLARNATLVTRIVPAERNAEQLSLYRRYLHQRHPDGGMDGHGAIEFDQFLIGPWGYGRFMEIREPATNGTPGQLLAVAVTDLTHQALSAVYTFYEPNAAARGLGTLAILHQIHWAQREQRPYLYLGYWIKDHFKMDYKRRFQKLEIYDGYRWRPFSTTYPTTHTLLEHHHHHH”, the protein production result is recorded as “not failed”.

Turning to “MEVMRGVRVIEGMNGGRFPYCNVVVVGDVVIDAGAGLEVMRKVNASLLVLSHLHPDHSSGAWLFKDVLAPAEGRITLDTLARRFVAPDLVESWKRFISAATGLREFECERYEEGVVVKEPEIVAVPVKGHTMDHHVFLIEQKVLFGADVDLTSFGPFYGNPEADPYLFEREMDKLLDIDFEIFVSAHSKPLEHHHHHH”, the protein production result is “failed”.

Consider “MNFFKILLMELRAIVSHKGVLLILIGAPLIYGLLYPLPYLRDIVTQQKIALVDEDNSFLSRQLAFMAQSSNELEIAFFSPSMLEAKKLLKEEKIYGILHIPSHFEANIHKQVPVTIDFYANSNYFLIYGALANAVVESINALNDEIRFKRNAQIEEAELGTDGIKIRPIALYNPSEGYLNYALSSVFIFILHQVMLIASSMFTSSRRLELALLDRKQIALRLCTRLLVFMGAFSVFILWYFGALFSFYGIERHGSALMVFLNSLIFMLATLSLGSFLGAWIKNEAHTTQIVLISSLPLIFMMGFVWPFESLPSYLQVFVQIVPAYHGISLLGRLNQMHAEFIDVSFHFYALIAIFIASFIGSVFKLSSLKKACENA”, for which the protein production entry is reported as “failed”.

In the case of “MAEERHHTEHIPQWKKDEIENIKELIQSHKVFGMVRIEGILATKIQKIRRDLKDVAVLKVSRNTLTERALNQLGESIPEMTRYLDNQTALIFTNESPFKLYKLLEQTKTPSPIKAGAIAPEDIIVQKGPTSFPPGPILGELQSAGIPASIDAGKVAVKETKVVCKAGEAVPQKLATMLSKLEIYPLIVGLDLRAAYDDGTIYEPELLAVDESKYFSDIIRAAQNAFNLSVNTAYPTGATIGTLLAKAYAESKSLGVNAVILEPGVMDSLLAKAHVQMTSVASEAAEKDANAVDDDLREVLGAAASAAAAATVAAPAAEEEKKEEEPEEEEEDHAEEDGMAGLGALFGLEHHHHHH”, the protein production entry is on record as “not failed”.

In the case of “KPSQEGGKGGSEKPKRPVSAMFIFSEEKRRQLQEERPELSESELTRLLARMWNDLSEKKKAKYKAREAALKAQSERK”, the protein production result is “not failed”.

As to “MAAIVLTRNLQLAKHHGSGVVGVLCLRGYSAAAAPPEDGPRPLKTTNPAAMKRGTGGRSSFNGIVATVFGATGFVGRYVCNKLGKSGTQMILPYRGDDSDVIRLKVTGDLGQVLFHFYNLEDPASIRDAVKHSNVVINLVGRDFETKNFKFKDVHVNGAERIARIAREAGVERLIHLSSLNVEANPKDLYVKGGSEWLKSKYEGELRVRDAFPNATIIRPADIYGSEDRFLRYYAHIWRRQFRSMPLWHKGEKTVKQPVYVSDVAQAIINAAKDPDSAGRIYQAVGPKRYQLSELVDWFHRLMRKDQKRWGYMRYDMRWDPTFLLKAKLNSFICPGTPIGGLHPARIEREAVTDKVLTGVPTLEDLGVTLTTMEQQVPWELRPYRAALYYDAELGEFETPSPPKCIEARDELRLFA”, the protein production result is listed as “failed”.

As to “MTAPEETAPVSVRKPSKPDLWKDSLGRTATRALQILLILTLTVVAVFGLLQIRLLVIPVLIALILAAAIGPFVNMLRRRGWRGGLATGVAFLGLLIVLGGVITVIVMSVRSQWDELISQAAAGLDELESFLLTGPFPIDREQLNQAREAVVEFAQSSQVRSGAVTGLSVVTEFLAGASLVVVILFFFLKDGAKIWEFFLRPFKGRREAKLRRVGKRTMEVLGGYVRGTAIVALVDTVAIGAALLIMQVPLAIPLAIIVFIGAFIPLVGATVAGILAALVALVANGPIVALIVIIVVIAVNQLEGDLLQPVVMGKSLELHALVILMALTAGTILAGIIGAVLAVPIAAVTWAIIQVWTAEDPDLEPMNPELPPANSQPT”, the protein production result is recorded as “failed”.

“MHTFKIDCQLHYRVIQMTEFVFQFEVAEHPWQTLIHESFQFKPDLAFEQYERDAGLNRLIRVNAPEGDLSVSYTAKVQTHIPERNTSLKECEIKDLPSDTLFYLAPSRFCESDLIDTMVTNTFAELPKGYSRVQAICDWIHDNIIYQSGSSDSTTTARDILVNRAGVCRDFAHLGIAICRALNIPARFVFGYMPFYQAQPDFHAIFEVYLENQWMLFDATRMGPIDQFVRVGTGLDAKDVPFATVYGEIELISMSPVIELV”: the protein production result was “failed”.

“TKEHRAAARKIAGESFVLLKNEGLSPTLAPVLPLSPTGTIAVIGPLANTRSNMPGTWSVAAVLDKSPSLVEGLTEWVGNQGKILYAKGSNLIGDAAYEERATMFGRSLNRDNRTDQQLLDEALKIASQADVIVAALGESSEMSGESSSRTNLNLPDVQHTLLEALLKTGKPVVLVLFTGRPLVLNWEQEHVPAILNVWFGGSEAGPAIGDVLFGAVNPGGKLTMTFPKSVGQIPLYYAHKNTGRPLKEGKWFEKFRSNYLDVDNDALYPFGYGLSYTTF”: the protein production entry is reported as “failed”.

On to “MGLTKQYLRYVASAVFGVIGSQKGNIVFVTLRGEKGRYVAVPACEHVFIWDLRKGEKILILQGLKQEVTCLCPSPDGLHLAVGYEDGSIRIFSLLSGEGNVTFNGHKAAITTLKYDQLGGRLASGSKDTDIIVWDVINESGLYRLKGHKDAITQALFLREKNLLVTSGKDTMVKWWDLDTQHCFKTMVGHRTEVWGLVLLSEEKRLITGASDSELRVWDIAYLQEIEDPEEPDPKKIKGSSPGIQDTLEAEDGAFETDEAPEDRILSCRKAGSIMREGRDRVVNLAVDKTGRILACHGTDSVLELFCILSKKEIQKKMDKKMKKARKKAKLHSSKGEEEDPEVNVEMSLQDEIQRVTNIKTSAKIKSFDLIHSPHGELKAVFLLQNNLVELYSLNPSLPTPQPVRTSRITIGGHRSDVRTLSFSSDNIAVLSAAADSIKIWNRSTLQCIRTMTCEYALCSFFVPGDRQVVIGTKTGKLQLYDLASGNLLETIDAHDGALWSMSLSPDQRGFVTGGADKSVKFWDFELVKDENSTQKRLSVKQTRTLQLDEDVLCVSYSPNQKLLAVSLLDCTVKIFYVDTLKFFLSLYGHKLPVICMDISHDGALIATGSADRNVKIWGLDFGDCHKSLFAHDDSVMYLQFVPKSHLFFTAGKDHKIKQWDADKFEHIQTLEGHHQEIWCLAVSPSGDYVVSSSHDKSLRLWERTREPLILEEEREMEREAEYEESVAKEDQPAVPGETQGDSYFTGKKTIETVKAAERIMEAIELYREETAKMKEHKAICKAAGKEVPLPSNPILMAYGSISPSAYVLEIFKGIKSSELEESLLVLPFSYVPDILKLFNEFIQLGSDVELICRCLFFLLRIHFGQITSNQMLVPVIEKLRETTISKVSQVRDVIGFNMAGLDYLKRECEAKSEVMFFADATSHLEEKKRKRKKREKLILTLT”, for which the protein production entry is on record as “failed”.

Take “MGYFYVLLAAFLWGLIGPLSRMAFQEGLTPLTVAFYRALLSWIFFLAHAARTGGLRVAPRDLPVFPLFGLLGVALFYGAYQLAVLYGGAALASVLLYTAPAWVALLSWAFLREPPTARSWGAVALTLLGVGLLGLGGGSEVRFGVRAFLFGLASGFFYALHYLLGKLYLGRYATPTFFAYALPVAALALAPWAEFGPLTPRALGALLALSLFSTYGAYLAFYAGLRRLPATVASVVATLEPVVAVVLAYLLFGEVLSPLGYFGALLVILAVLLAVRR”: the protein production entry is “failed”.
